Laboratory results as given in publication PMC4368675, “A Single parS Sequence from the Cluster of Four Sites Closest to oriC Is Necessary and Sufficient for Proper Chromosome Segregation in Pseudomonas aeruginosa”.

Tests used:
[1] = target: T1, ParB (Pseudomonas aeruginosa, UniProt Q9HT12 1-290); assay: EMSA; no significant difference from wt parS5; unlabelled parS2 competitor; 10 mM Tris-HCl pH 7.5, 0.5 mM DTT, 50 mM KCl, 1 mM MgCl2, 20 ul, 6 pmol labelled DNA, 18 pmol nonspecific competitor (titrations) or 240 pmol ParB plus 18-180 pmol unlabelled parS2 (dissociation), 15 min 37 C; 5% PAGE in 0.5x TBE; conditions: protein: recombinant; tags: His6 (pET28-derived pKLB28); chain copies: 2; label: 5'-Cy5 on strand 1; 5' overhang 4 nt at both ends
T1 sequence: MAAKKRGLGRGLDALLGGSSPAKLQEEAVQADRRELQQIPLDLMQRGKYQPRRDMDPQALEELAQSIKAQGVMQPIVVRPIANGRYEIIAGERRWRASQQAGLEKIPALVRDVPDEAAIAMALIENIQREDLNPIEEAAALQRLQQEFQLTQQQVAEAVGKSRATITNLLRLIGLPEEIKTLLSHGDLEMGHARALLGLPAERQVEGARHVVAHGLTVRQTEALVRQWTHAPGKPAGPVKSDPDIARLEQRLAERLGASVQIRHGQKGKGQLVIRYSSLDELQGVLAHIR

[2] = target: T1, ParB; assay: EMSA; hierarchy: below parS10, above parS5; 10 mM Tris-HCl pH 7.5, 0.5 mM DTT, 50 mM KCl, 1 mM MgCl2, 20 ul, 6 pmol labelled DNA, 18 pmol nonspecific competitor (titrations) or 240 pmol ParB plus 18-180 pmol unlabelled parS2 (dissociation), 15 min 37 C; 5% PAGE in 0.5x TBE; conditions: protein: recombinant; tags: His6 (pET28-derived pKLB28); chain copies: 2; label: 5'-Cy3 on strand 1; 5' overhang 4 nt at both ends
[3] = target: T1, ParB; assay: EMSA; lowest of the wt sites in hierarchy; 10 mM Tris-HCl pH 7.5, 0.5 mM DTT, 50 mM KCl, 1 mM MgCl2, 20 ul, 6 pmol labelled DNA, 18 pmol nonspecific competitor (titrations) or 240 pmol ParB plus 18-180 pmol unlabelled parS2 (dissociation), 15 min 37 C; 5% PAGE in 0.5x TBE; conditions: protein: recombinant; tags: His6 (pET28-derived pKLB28); chain copies: 2; label: 5'-Cy3 on strand 1; 5' overhang 4 nt at both ends
[4] = target: T1, ParB; assay: EMSA; hierarchy: below parS1/4, equal to parS7, parS8; 10 mM Tris-HCl pH 7.5, 0.5 mM DTT, 50 mM KCl, 1 mM MgCl2, 20 ul, 6 pmol labelled DNA, 18 pmol nonspecific competitor (titrations) or 240 pmol ParB plus 18-180 pmol unlabelled parS2 (dissociation), 15 min 37 C; 5% PAGE in 0.5x TBE; conditions: protein: recombinant; tags: His6 (pET28-derived pKLB28); chain copies: 2; label: 5'-Cy3 on strand 1; 5' overhang 4 nt at both ends
[5] = target: T1, ParB; assay: EMSA; hierarchy: below parS1/4, equal to parS8, parS9; 10 mM Tris-HCl pH 7.5, 0.5 mM DTT, 50 mM KCl, 1 mM MgCl2, 20 ul, 6 pmol labelled DNA, 18 pmol nonspecific competitor (titrations) or 240 pmol ParB plus 18-180 pmol unlabelled parS2 (dissociation), 15 min 37 C; 5% PAGE in 0.5x TBE; conditions: protein: recombinant; tags: His6 (pET28-derived pKLB28); chain copies: 2; label: 5'-Cy3 on strand 1; 5' overhang 4 nt at both ends; one mismatch as printed
[6] = target: T1, ParB; assay: EMSA; no specific complex; nonspecific smearing at ParB >5 uM; 10 mM Tris-HCl pH 7.5, 0.5 mM DTT, 50 mM KCl, 1 mM MgCl2, 20 ul, 6 pmol labelled DNA, 18 pmol nonspecific competitor (titrations) or 240 pmol ParB plus 18-180 pmol unlabelled parS2 (dissociation), 15 min 37 C; 5% PAGE in 0.5x TBE; conditions: protein: recombinant; tags: His6 (pET28-derived pKLB28); chain copies: 2; label: 5'-Cy5 on strand 1; blunt
[7] = target: T1, ParB; assay: EMSA; hierarchy: below parS7-9, above parS6; 10 mM Tris-HCl pH 7.5, 0.5 mM DTT, 50 mM KCl, 1 mM MgCl2, 20 ul, 6 pmol labelled DNA, 18 pmol nonspecific competitor (titrations) or 240 pmol ParB plus 18-180 pmol unlabelled parS2 (dissociation), 15 min 37 C; 5% PAGE in 0.5x TBE; conditions: protein: recombinant; tags: His6 (pET28-derived pKLB28); chain copies: 2; label: 5'-Cy3 on strand 1; 5' overhang 4 nt at both ends
[8] = target: T1, ParB; assay: EMSA; highest in affinity hierarchy; 10 mM Tris-HCl pH 7.5, 0.5 mM DTT, 50 mM KCl, 1 mM MgCl2, 20 ul, 6 pmol labelled DNA, 18 pmol nonspecific competitor (titrations) or 240 pmol ParB plus 18-180 pmol unlabelled parS2 (dissociation), 15 min 37 C; 5% PAGE in 0.5x TBE; conditions: protein: recombinant; tags: His6 (pET28-derived pKLB28); chain copies: 2; label: 5'-Cy3 on strand 1; 5' overhang 4 nt at both ends
[9] = target: T1, ParB; assay: EMSA; hierarchy: below parS1/4, equal to parS7, parS9; 10 mM Tris-HCl pH 7.5, 0.5 mM DTT, 50 mM KCl, 1 mM MgCl2, 20 ul, 6 pmol labelled DNA, 18 pmol nonspecific competitor (titrations) or 240 pmol ParB plus 18-180 pmol unlabelled parS2 (dissociation), 15 min 37 C; 5% PAGE in 0.5x TBE; conditions: protein: recombinant; tags: His6 (pET28-derived pKLB28); chain copies: 2; label: 5'-Cy3 on strand 1; 5' overhang 4 nt at both ends
[10] = target: T1, ParB; assay: EMSA; second in hierarchy; competed by unlabelled parS2; 10 mM Tris-HCl pH 7.5, 0.5 mM DTT, 50 mM KCl, 1 mM MgCl2, 20 ul, 6 pmol labelled DNA, 18 pmol nonspecific competitor (titrations) or 240 pmol ParB plus 18-180 pmol unlabelled parS2 (dissociation), 15 min 37 C; 5% PAGE in 0.5x TBE; conditions: protein: recombinant; tags: His6 (pET28-derived pKLB28); chain copies: 2; label: 5'-Cy3 on strand 1; 5' overhang 4 nt at both ends

B1: parS5* (dsDNA)
DNA 1: AATTCAAGCTTTATTGTATATGGAGCAG
DNA 2: TCGACTGCTCCATATACAATAAAGCTTG
B1: binds [1].

B2: parS6 (dsDNA)
DNA 1: AATTCAAGCTTCGTTCCACGTGGAAGAG
DNA 2: TCGACTCTTCCACGTGGAACGAAGCTTG
B2: binds [2].

B3: parS5 (dsDNA)
DNA 1: AATTCAAGCTTTGTTCTACATGGAACAG
DNA 2: TCGACTGTTCCATGTAGAACAAAGCTTG
B3: binds [3].

B4: parS9 (dsDNA)
DNA 1: AATTCAAGCTTTGTTCCACGAGGAAGAG
DNA 2: TCGACTCTTCCTCGTGGAACAAAGCTTG
B4: binds [4].

B5: parS7 (dsDNA)
DNA 1: AATTCAAGCTTTGTTCCACGAGGAACCG
DNA 2: TCGACCGTTCCTCGTGGAACAAAGCTTG
B5: binds [5].

B6: nonspecific control (dsDNA)
DNA 1: GATAGCTCTTTGCCATTAAC
DNA 2: GTTAATGGCAAAGAGCTATC
B6: no binding [6].

B7: parS10 (dsDNA)
DNA 1: AATTCAAGCTTTGTTCCACAGGGAACAG
DNA 2: TCGACTGTTCCCTGTGGAACAAAGCTTG
B7: binds [7].

B8: parS2/parS3 (dsDNA)
DNA 1: AATTCAAGCTTTGTTCCACGTGGAACAG
DNA 2: TCGACTGTTCCACGTGGAACAAAGCTTG
B8: binds [8].

B9: parS8 (dsDNA)
DNA 1: AATTCAAGCTTTGTTCCACGAGGCACAG
DNA 2: TCGACTGTGCCTCGTGGAACAAAGCTTG
B9: binds [9].

B10: parS1/parS4 (dsDNA)
DNA 1: AATTCAAGCTTTGTTCCACGTGGAACCG
DNA 2: TCGACGGTTCCACGTGGAACAAAGCTTG
B10: binds [10].
